The text below walks through data of US20230265170A1.

Experiment in all cases: cell-based or functional assay
Assay [1] addresses SARS-CoV-2 Omicron BA.3 spike (S) protein (SARS-CoV-2).
In assay [2] the target is SARS-CoV-2 Omicron BA.2 spike (S) protein (SARS-CoV-2).
For assay [3], the target named is SARS-CoV-2 Omicron BA.1 spike (S) protein (SARS-CoV-2).

Chain of AZD8895 (antibody) (VH): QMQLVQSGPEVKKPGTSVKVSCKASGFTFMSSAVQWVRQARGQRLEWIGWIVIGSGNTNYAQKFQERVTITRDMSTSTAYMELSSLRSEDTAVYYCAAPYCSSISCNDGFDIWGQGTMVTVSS
Chain of AZD8895 (antibody) (VL): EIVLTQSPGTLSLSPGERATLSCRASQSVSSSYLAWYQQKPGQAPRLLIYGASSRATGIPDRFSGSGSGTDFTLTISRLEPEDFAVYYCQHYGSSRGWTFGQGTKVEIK

For the substance ADG10 (antibody), the IC50, pseudoviral neutralization in assay [1], in assay [2] and in assay [3] was above 10 µg/mL in each case.

For the substance ADG20 (antibody), the results for the IC50, pseudoviral neutralization in assay [1], in assay [2] and in assay [3] were above 10 µg/mL, above 10 µg/mL and 0.348 µg/mL, respectively.

For the substance ADG30 (antibody), the IC50, pseudoviral neutralization in assay [1], in assay [2] and in assay [3] was above 10 µg/mL each time.

AZD1061 (antibody): the IC50, pseudoviral neutralization turned out to be 0.019 µg/mL in assay [1], 0.008 µg/mL in assay [2] and 0.308 µg/mL in assay [3].

As for AZD8895 (antibody), the results for the IC50, pseudoviral neutralization in assay [1], in assay [2] and in assay [3] were above 10 µg/mL, 1.33 µg/mL and 0.246 µg/mL, respectively.

For Ly-CoV16 (antibody), the IC50, pseudoviral neutralization in assay [1], in assay [2] and in assay [3] was above 10 µg/mL throughout.

As for Ly-CoV555 (antibody), the IC50, pseudoviral neutralization in assay [1], in assay [2] and in assay [3] was above 10 µg/mL each time.

With Ly-CoV1404 (antibody), the IC50, pseudoviral neutralization is 0.002 µg/mL in assay [1], 0.001 µg/mL in assay [2] and 0.002 µg/mL in assay [3].

Consider REGN10933 (antibody), for which the IC50, pseudoviral neutralization in assay [1], in assay [2] and in assay [3] was above 10 µg/mL in each case.

On to REGN10987 (antibody), for which the IC50, pseudoviral neutralization was above 10 µg/mL in assay [1], 0.516 µg/mL in assay [2] and above 10 µg/mL in assay [3].

On to S309 (antibody), for which the values for the IC50, pseudoviral neutralization in assay [1], in assay [2] and in assay [3] were 0.311 µg/mL, 0.638 µg/mL and 0.313 µg/mL, respectively.
